Drawing on the RNAGym collection of RNA variant scans (doi:10.7554/elife.80360), this text covers self-cleavage for 64 variants.

B1: HDV Ribozyme (parent)
chain: GGCCGGCAUGGUCCCAGCCUCCUCGCUGGCGCCGGCUGGGCAACAUUCCGAGGGGACCGUCCCCUCGGUAAUGGCGAAUGGGACCCA

In the series the parent is B1. Nature of the series: self-cleavage, relative activity (ratio to wild type); higher = more cleavage; co-transcriptional.
Turning to GGCCGGCAUGGUCCCAGCCUCCUCGCUGGCGCCGGCUGGGCAACGUUCCGAGGAGACCGUCCCCUCGGUAAUGGCGAAUGGGACCCA, the self-cleavage worked out at 0.814.

As to GGCCGGCAUGGUCCCAGCCUCCUCGCUAGGGCCGGCUGGGCAACAUUCCGAGGGGACCGUCCCCUCGGUAAUGGCGAAUGGGACCCA, the self-cleavage was 0.117.

In the case of GGCCGGCAUGGUCCAAGCCUCCUCGCUGGCGCCGGCUGGGCAUCAUUCCGAGGGGACCGUCCCCUCGGUAAUGGCGAAUGGGACCCA, the self-cleavage amounted to 0.212.

For GGCCGGCAUGGUCCCAGCCUCCUCGCUGGCGCCGGCUGGGCAACAUUCCGAGGGGACCGUCCCCUCGUUAAUCGCGAAUGGGACCCA, the self-cleavage stood at 0.205.

Consider GGCCGGCAUGGUCCCAGCCUCCUCGCUGGCGCCGGCUGGGCAGUAUUCCGAGGGGACCGUCCCCUCGGUAAUGGCGAAUGGGACCCA, for which the self-cleavage turned out to be 0.884.

Take GGCCGGCAUGGUCCCAGCCUCCACGCUGGCGCCGGCUGGGCCACAUUCCGAGGGGACCGUCCCCUCGGUAAUGGCGAAUGGGACCCA: the self-cleavage is 0.253.

In the case of GAGCGGCAUGGUCCCAGCCUCCUCGCUGGCGCCGGCUGGGCAACAUUCCGAGGGGACCGUCCCCUCGGUAAUGGCGAAUGGGACCCA, the self-cleavage came out at 0.123.

As for GGCCGGCAUGGGCCCAGCCUCCUCGCUGGCGCCGGCUGGGCAACAGUCCGAGGGGACCGUCCCCUCGGUAAUGGCGAAUGGGACCCA, the self-cleavage worked out at 0.692.

For GGCCGGCAUGGUCCCAGCCUCCUCGCUGACGCCGGCUGGGCAACAUUCCGAGGGGACCGUCCCCUCGGUAAUGGCGAAUGGGACCCU, the self-cleavage was 0.155.

Consider GGCCGGCAUGGUCCCAGCCUCCUCGCUGACGCCGGCUGGGCAACAUUCCGAGGGGACCGUCCCCUCGGAAAUGGCGAAUGGGACCCA, for which the self-cleavage was found to be 0.172.

As to GGCCGGCAUGGUCCCAGCCUCCUCGCUGGCGCCGGCUGGGCAACAUUCCGAGGGGACCGUCCCCUCGGUAAUGGCGAAUGAGACACA, the self-cleavage was 0.35.

On to GGCCGGCAUGGUCCCAGCCUCCUCGCUGGCGCCGGCUGGGCAACAUUCCGAGGGGACCGUCCCCUCGGUAACGGCGAAUGGGACCCA, for which the self-cleavage stood at 0.589.

As to GGACGGAAUGGUCCCAGCCUCCUCGCUGGCGCCGGCUGGGCAACAUUCCGAGGGGACCGUCCCCUCGGUAAUGGCGAAUGGGACCCA, the self-cleavage amounted to 0.044.

Consider GGCCGGCAUGGUCCCAGCCUCCUGGCAGGCGCCGGCUGGGCAACAUUCCGAGGGGACCGUCCCCUCGGUAAUGGCGAAUGGGACCCA, for which the self-cleavage is 0.0437.

With GGCCGGCAUGGUCCCAGCCUCCUCGCUGGCGCCGCCUGGGCAACAUUCCGAGGGGACCGUCCCCUCGGUAAUGGCGAAUUGGACCCA, the self-cleavage was determined as 0.043.

For the variant GGCCGGCACGGUCCCAGCCUCCUCGCUGGCGCCGGCUGGGCAACAUUCCGAGGGGACCGUCCCCUCGGUAAUGGCGAAAGGGACCCA, the self-cleavage came out at 0.831.

As for GGCCGGCAUGGUCCCAGGCUCCUCGGUGGCGCCGGCUGGGCAACAUUCCGAGGGGACCGUCCCCUCGGUAAUGGCGAAUGGGACCCA, the self-cleavage was 0.0831.

For GGCCGGCAUGGUCCCAGCCUCCUCGUUGGCGCCGGCUUGGCAACAUUCCGAGGGGACCGUCCCCUCGGUAAUGGCGAAUGGGACCCA, the self-cleavage was 0.616.

Regarding GGCCGGCAUGGUCCCAGCCUCCUCGCUGGCGCCGGCUGGGCAACACUACGAGGGGACCGUCCCCUCGGUAAUGGCGAAUGGGACCCA, the self-cleavage worked out at 0.89.

Regarding GGCCGGCAUGGUCCCAGCCUCCUCGCUGGCGCCGGCAGGGGAACAUUCCGAGGGGACCGUCCCCUCGGUAAUGGCGAAUGGGACCCA, the self-cleavage stood at 0.0723.

Take GGCCGGCAUGGUCGCAGCCUCCUCGCUGGCGCCGGGUGGGCAACAUUCCGAGGGGACCGUCCCCUCGGUAAUGGCGAAUGGGACCCA: the self-cleavage is 0.237.

As to GGCCGGCAUGGUCCCAGUCUCCUCGCUGGCGCCGGCUGGGCAACAUUCCGAGGGGACCGUCCCCUCGGUAAUGUCGAAUGGGACCCA, the self-cleavage came to 0.166.

GGCCGGCAUGGUCCCAGCCUCCUCGCUGGCGCCGGCUGGGCAACAUGCCGAGGGGACCGUCCCCUCGGUAAUCGCGAAUGGGACCCA: the self-cleavage was found to be 0.534.

In the case of GGCCGGCAUCGUCCCAGCCUCCUCGCUGGCGCCGGCUGGGCAACAUUCCGAGUGGACCGUCCCCUCGGUAAUGGCGAAUGGGACCCA, the self-cleavage amounted to 0.91.

As to GGCCGGCAUGGUCCCAGCCUCGUCGCUGGCGCCGGCUGGGCAACAUUCCGAGGGGACCGUCCCCUAGGUAAUGGCGAAUGGGACCCA, the self-cleavage turned out to be 0.0692.

GGCCGGCAUGGUCCCAGCCUCCUCGCUGGCGCCGGCUGGGCAACAUUCCGACGGGACCGUCCCCUCGGUAAUGGCGAAUGGGAACCA: the self-cleavage amounted to 0.791.

As for GGCCGGCAUGGUCCCAGCCUCCUCGCUGGCGCCGGCUGGGCAACAUUCCGAGGUGACCGUCCCAUCGGUAAUGGCGAAUGGGACCCA, the self-cleavage came to 0.486.

Regarding GGCUGGCAUGGUCCCAGCCUCCUCGCUGGCGCCGGCUGGGCAACAUUCCGAGGGGACCGUCCCCUCGGUAAUGGCGAAUGGGACCCG, the self-cleavage amounted to 0.599.

Consider GGCCGGCAUGGUCCCAGCCUCCUCGCUGGCCCCGGCUGUGCAACAUUCCGAGGGGACCGUCCCCUCGGUAAUGGCGAAUGGGACCCA, for which the self-cleavage amounted to 0.277.

Take GGCCGGCAUGGUCCCAGCCUCCUCGCUGGCGCCGGCUGGGCAACAUUCCGAGCGGACCGUCCCCUCGGUAAUGGCGAAUGGGGCCCA: the self-cleavage was 0.815.

As for GGCCGGCAUGGUCCCAGCCUCCUCGCUGGCGCCGGCUGGGCAACAUUUCAAGGGGACCGUCCCCUCGGUAAUGGCGAAUGGGACCCA, the self-cleavage came out at 0.888.

Regarding GGCCGACAUGGUCCCAGCCUCCUCGCUGGCGCCGGCUGGGUAACAUUCCGAGGGGACCGUCCCCUCGGUAAUGGCGAAUGGGACCCA, the self-cleavage stood at 0.431.

As for GGCCGGCCUGGUCCCAGCCUCCUCGCUGGCGCCGGCUGGGCAACAUUCCGAGGGGACCGUCCCCUCGGUAAUUGCGAAUGGGACCCA, the self-cleavage was determined as 0.264.

For GGCCGGCAUGGUCCCAACCUCCUCGCUGGCGCCGGCUUGGCAACAUUCCGAGGGGACCGUCCCCUCGGUAAUGGCGAAUGGGACCCA, the self-cleavage was 0.1.

On to GGCCCGCAUGGUCCCAGCCUCCUCGCUGGCGCCGGCUGGGCAACAUUCCGAGGGGACCGUCCCAUCGGUAAUGGCGAAUGGGACCCA, for which the self-cleavage stood at 0.178.

With GGCCGGCAUGGUCCCAGCCUCCUCGCUGGCGCCGGCUCGGCAACAUUCCGAGGGGACCGUCCCCUCGGUAUUGGCGAAUGGGACCCA, the self-cleavage was determined as 0.0449.

As to GGCCGGCAUGGUCCCAGCCUCCUCGCUGGCGCCGGCUGGGCAACAUUCCGAGGGGACCGUCCCCUCGGCAAUGGCGAAUGGGAUCCA, the self-cleavage is 0.852.

For GGCCGGCAUGGUCCCAGCCUCCUCGCAGGCGCCGGCUGGGCAACAUUCCGCGGGGACCGUCCCCUCGGUAAUGGCGAAUGGGACCCA, the self-cleavage was determined as 0.86.

Turning to GGCCGUCAUGGUCCCAGCCUCCUCGCUGGCGCCGGCUGGGCAACAUUCCGAGGGGACCGUCCUCUCGGUAAUGGCGAAUGGGACCCA, the self-cleavage came out at 0.763.

On to GGCCGGCAUGGUCCCAGCCUCCUCCCUGGCGCCGGCUGGGCAACAUUCCGAGGGGACCGUCCCCUCGGUAAUGGCGAAUGGGACCCG, for which the self-cleavage worked out at 0.174.

In the case of GGCCGGCAUGGUCCCAGCCUCCUCGCUGGCGCCGGCUGGGCAACAUUCCGAGGACACCGUCCCCUCGGUAAUGGCGAAUGGGACCCA, the self-cleavage came out at 1.04.

In the case of GGCCGGCAUGGUCCCAGCCUCCUCGCUGGCGCCGGCUGGGCAACAUUCCGAUGGGACCGUCCCCUCGGUACUGGCGAAUGGGACCCA, the self-cleavage came out at 0.745.

As for GGCCGGCAUGGUCCCAGCCUCCUCGCUGGCGCCGGCUGGGCUACAUUCCGAGGGGACCGUCCCCUCGGUAAUGGCGAAUGGGAUCCA, the self-cleavage amounted to 0.181.

In the case of CGCCGGCAUGGUCCCAGCUUCCUCGCUGGCGCCGGCUGGGCAACAUUCCGAGGGGACCGUCCCCUCGGUAAUGGCGAAUGGGACCCA, the self-cleavage turned out to be 0.

As for GGCCGGCAUGGUCCCCGCCUCCUCGCUGGCGCCGGCUGGGCAACAUUCCGAGGGGACCGUUCCCUCGGUAAUGGCGAAUGGGACCCA, the self-cleavage turned out to be 0.798.

Regarding GGCCGGCAUGGUCCCAGCCGCCUCGCUGGCGCCGGCUGGGCAACAUUCCGAGGGGACCGUCCCCUCGGUAAUGGCGAUUGGGACCCA, the self-cleavage came to 0.

With GGCCGGCCUGGUCCCAGCCUCCUCGUUGGCGCCGGCUGGGCAACAUUCCGAGGGGACCGUCCCCUCGGUAAUGGCGAAUGGGACCCA, the self-cleavage was 1.01.

In the case of GGCCGGCAUGGUCCCAGCCUCCUCGCUGGCGCCGGCUGGGCAACAUUCCGAGGGGACCGUCCCCUCGGUCAUGGCGAUUGGGACCCA, the self-cleavage turned out to be 0.162.

Regarding GGCCGGCAUGGACCCAGCCUCCUCGCUGGCGCCGGCUGGGCAACAUUGCGAGGGGACCGUCCCCUCGGUAAUGGCGAAUGGGACCCA, the self-cleavage is 0.415.

On to GGCCUGCAUGGUCCCAUCCUCCUCGCUGGCGCCGGCUGGGCAACAUUCCGAGGGGACCGUCCCCUCGGUAAUGGCGAAUGGGACCCA, for which the self-cleavage stood at 0.18.

For GGCCGGCAUGGUCCCAGCCUCGUCGCUGGCGCCGGCUGGGCAACAUUCUGAGGGGACCGUCCCCUCGGUAAUGGCGAAUGGGACCCA, the self-cleavage came out at 0.0639.

GCCCGGCAUGGUCCCAGCCUCCUCGCUGGCGCCGGCUGGGCAACAUUCCGAGGGGACCGUCCCCUCGGUAAUGGCGAAUGUGACCCA: the self-cleavage came to 0.0203.

For the variant GGCCGGCAUCGUCCCAGCCUCCUCGCUGGCGCCGGCUGGGCAACAUUCCGAGGGGACCGUCCCCUCGGUAAUGGCGAAUGGGACCCG, the self-cleavage is 0.887.

As to GGCCGGCAUGGUCCCAGCCUCCUCGCUGGCGCCGGCAGGGCAACCUUCCGAGGGGACCGUCCCCUCGGUAAUGGCGAAUGGGACCCA, the self-cleavage was determined as 0.0707.

In the case of GGCCGGCAUGGUCCCAGCCUCCUCGCUGGCGCCGGCUGGGCAACAUUCCGAGGGGACCGUCCGCUUGGUAAUGGCGAAUGGGACCCA, the self-cleavage came to 0.386.

Take GGCCGGCAUGGUCCCAGCUUCCUCGCUGGCGCCGGCUGGGCAACAUUCCGAGGGGACCGUCCCCUCGGUAAUGGCGCAUGGGACCCA: the self-cleavage stood at 0.0811.

For the variant GGGCGGCAUGGUCCCAGCCUCCUCGCUGGCGCCGGCUGGGCAACAUUCCGAGGGGACCGUCCCCUCGGUAAUGGCGAAUGGGACCCG, the self-cleavage was 0.708.

GGCCGGCAUGGUCCCAGCCUCCUCGCUGGCGCCGGCUGGGCUACAUUCCGAGGGGACCGUCCCCUCGGUAAUGGCGAUUGGGACCCA: the self-cleavage worked out at 0.284.

As to GGCCGGCAUGGUCCCAGCCUCCUCGCUGGCGCCGGCUGGGCGACAUUCCGAGGGGACCGUCCCCUCAGUAAUGGCGAAUGGGACCCA, the self-cleavage came to 0.435.

On to GGCCGGCAUUGUCCCAGCCUCCUCGCUGGCGCCGGCUGGGCAACAUUCCGAGGGGACCGUCCCCUCGGUAAUGGCAAAUGGGACCCA, for which the self-cleavage worked out at 0.652.

With GGCCGGCAUGGUCACAGCCUCCUCGCUGGCGCCGGCUGGGCAACAUUCCGAGGGGACCGUCCCCACGGUAAUGGCGAAUGGGACCCA, the self-cleavage is 0.811.

Take GUCCGGCAUGGUCCCAGCCUCCUCGCUGGCGCCGGUUGGGCAACAUUCCGAGGGGACCGUCCCCUCGGUAAUGGCGAAUGGGACCCA: the self-cleavage was found to be 0.0308.

For the variant GGCCGGCAUGGUCCCAGCCUCCUCGCUGGCGACGGCUGGGCAAGAUUCCGAGGGGACCGUCCCCUCGGUAAUGGCGAAUGGGACCCA, the self-cleavage worked out at 0.107.

For GGCCGGCAUGGUUCCAGCCUCCUCGCUGGCGCCGGCUGGGCAACAUUCCGAGGGGACCGUCCCCUCGGUAAUGGCGAAUGGGACCGA, the self-cleavage was determined as 0.692.
